Experiment: yeast display, Sf9 membrane polyspecificity reagent, FACS + sequencing; frameworks hold sequencing errors
Summary of the method: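 Galactose induction of a Saccharomyces cerevisiae BJ5465 synthetic nanobody display library ran 36–48 hours. The cells were then stained for 1 hour at 4 °C with 10% biotinylated, detergent-solubilized Sf9 membrane reagent, pulled down on streptavidin microbeads and FACS-sorted into low and high (top ~1%) gates on expression and reagent-binding fluorescence. Labels for polyreactivity follow the gate of origin.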

| Sequence | polyreactivity (PSR sort gate) |
| --- | --- |
| QVQLVESGGGLVQAGGSLRLSCAASGLIFRYYAMGWYRQAPGKESELVAAITSGGGTYYADSVKGRFTISRDNAKNTVYLQMNSLKPEDTAFYYCAVGSYGHPKHRRNLDYWGQGTQVTVSS | low polyreactivity |
| QVQLVESGGGLVQAGGSLRLSCAASGSSLDSYTMGWSRQAPGKERELVAAITSDGGSTYYADSVKGRFTISRDNAKNTVYLQMNSLKPEDTAVDYCAKLSRYYGFWYTPDFDYWGQGTQVTVSS | high polyreactivity |
| QVQLVESGGGLVQAGGSLRLSCAASGFTFPVYAMGWYRQAPGKERELVAAITYNGGSTYDADSVKGRFTISRDNAKHTVYFQMNSLKPEDTAVSYCAAEVFLRSLGYWYDYWGQGTQVTVSS | high polyreactivity |
| QVQLVESGGGLVQAGGSLRLSCAASGLTFEWYAMGWYRQAPGKERELVAAISWNGGSTYYADSVKGRFTISRDNAKNTVYLQMNSLKPEDTAVYYCATSSPRRYYWGQGTQVTVSS | high polyreactivity |
| QVQLVESGGGLVQAGGSLRLSCAASGRTFYSNARGWSRQAPGKERELVARISNGGSTHYADSVKGRFTISRDNAKNTVYLQMNSLKPEDTAVYYCNTDRGHFYTYPYTYYRLGYWGQGTQVTVSS | low polyreactivity |
| QVQLVESGGGLVQAGGSLRLSCAASGSTFGYYTMGWYRQAPGKERELVAAITKSGGGTYYADSVKGRFTISRDNAKNTVYLQMNSLKPEDTAVYYCADYSRFTSDYWGQGTQVTVSS | high polyreactivity |
| QVQLVESGGGLVQAGGSLRLSCAASGRIFKRNAMGWYRQAPGKERELVAAISYSGGSTYYADSVKGRFTISRDNAKNTVYLQMNSLKPEDTAVYYCAVDRYPTGITKYDYWGQGTQVTVSS | high polyreactivity |
| QVQLVESGGGLVQAGGSLRLICAASGRTFGVYAMGWYRQAPGKERELVATIRTTGSTNYADSVKGRYTISRDNAKITVYLEMNSLKTEDTAVYYCAARQRQSKYYPYTTFTYDYWGQGTQVSVSS | high polyreactivity |
| QVQLVESGGGLVQAGGSLRLSCAASGRTFFDNAMGWYRQAPGKEREFVAAISYNGGSTYFADSVKGRFTISRDNAKNTVYLQMNSLKPEDTAVYYCAADPNYGYDYWGQGTQVTVSS | low polyreactivity |
| QVQLVESGGVLVQAGGSLRLSCAASGSTFLWYAMGWYRQAPGKEREMVAAISRSGGNTYYADSVKGRFTISRDNAKTSVYLEMNSLNPEDTAVYDCAARKLYGSPEHGYGGQGTQVTVSS | high polyreactivity |
| QVQLVESGGGLVQAGGSLRLSCAASGSIFYLYAMGWYRPAPGKERELVARITIRGGSTYYADSVKGRFTISRDNAKNTVYLQMNSLKPEDTAVYYCAARRPYGDYDYWGQGTQVTVSS | high polyreactivity |
| QVQLVESGGGLVQAGGSLRLSCAASGSTFLLNAMGWYRQAPGKERELVAAITWNGGSTYYADSVKGRFTISRDNAKNTVYLQMNSLKPEDTAVYYCAADWSWQWRYGYDYWGQGTQVTVSS | low polyreactivity |
| QVQLVESGGGLVQAGGSLRLSCAASGLTFWAYFMGWYRQAPGKEREFVAAITLSSGSTYYADSVKGRFTISRDNEKNTVYLQMNSLKPEYTAVYYCAATRDYGYWMYSWGQGTQGTVSS | high polyreactivity |
| QVQLVESGGGLVQAGGSLRLSCAASGFTYKYYVMGWYRQAPGKERELVASISKRGGSTRYADSVKGRFTISRDYAKNTVYLQMNSLKPEDNAVYYCAAAFVRRPPYVGYSRFDYWGQGTQVTVSS | high polyreactivity |
| QVHLVESGGGLVQAGGSLRLSCAASGSIFIVYTMGWYRQAPGKERELVAAISSGGITDYADSVKGRFTISRDNAKNTVYLQMNSLKPEDTAVYYWGQGTQVTVSS | low polyreactivity |
| QVQLVESGGGLVQASGSLRLSCAASVRIFFVNAMGWYRQEHGKERELVAAIPSSGGSTYYADSVKGRFTISRDNAKNTVYLQMNSLKPEDTAVYYCNARSWYPYDYWGQGTQVTVSS | low polyreactivity |

| Sequence | polyreactivity (PSR sort gate) |
| --- | --- |
| QVQLVESGGGLVQAGGSLRLSCAASGRIFGYNAMGWYRQAPGKERELVAAITNGGSTNYADSVKGRFTISRDNAKNTVYFHMNSLKPEDTAVYYCAVKWYPPGHDYWGQGTQVTVSS | low polyreactivity |
| QVQLVESGGGLVQAGGSLLLSCAATGITFVPNAMGWYRQAPGKERELVDAISTRGGSTYYADSVKGRFTISRDNAKNTVYLQMNSLKPEDTAVYYCNALITGRWFDYWGQGTQVTVSS | high polyreactivity |
| QVQLVESGRGLVQAGGSLRLSCAASGRTFDGYAMGWYRQAPGKERELVAAIDYDGVSTYYADSVKGRFTISRDNAKNTVYLPMHSLKPEDTAVYFCAVDATDDWWLDYWGQGTQVSVSS | low polyreactivity |
| QVQLVESGGGLVQAGGSLRLSCAASGITFYVYAMGWYRKAPGKERELVAAITSNGASTYYADSVKGRFTISRDNAKNTVYLQMNSLKPEDTAVYYCARRIKFPYHSYVGEYDYWGQGTQVTVSS | low polyreactivity |
| QVQLVESGGGLVQAGGSLRLSCAASGSIFFYNTMGWYRQAPRKERELVAAISSSGRTYYADSVKGRFTISRDNAKNTVYLQMNSLKPEDTAVYYCAKRTWRGYDYWGQGTQVTVSS | high polyreactivity |
| QVQLVESGGGLVQAGGSLRLSCAASGNIFDRNAMGWYRHAPGKQRELVAAISRSGGRTYYADSVKGRFTISRDNAKNTVYLQMISLKPEDTGVYYCATTYGGTYEYDYWGQGTQVTVSS | high polyreactivity |
| QVQLVESGVGLVKAGGSLRLTCAASGSIFDNYPMGWYIQAPGKERELVAAISGRGGSTYYADSVKGRFTISRDNAKNSVYLQMNSLKPEVTAVYYCNALVHQTYYDYEYWGQGTQVTVSS | high polyreactivity |
| QVQLVDSGGALVQAGGSLSLSCAASGGKYDSYAMGWYRQAPGKERELVASISRSGSTNYADSVKGRFTISRDNAMNTVYLQMNSLNPEDTAVYYCAASVRGIRYDYWGQGTQVTVSS | low polyreactivity |
| QVQLVESGGGLVQAGGSLRLSCAASGRTFWYYAMGWYRQAPGKEREFVAAISWSGGSTYYADSVKGRFTISRDNAKNTVYFQMNSLKPEDTAVYYCNAGNYRDKSYYWGQGTQVTVSS | low polyreactivity |
| QVQLVESGGGLVQAGGSLRLSCAASGSTFSRNAMGWSRQAPGKERELVAAISWRGGRTYYADSVKGRFTISRDNAKNTVYLQMNSLKPEDTAVYYCAAEHKYRYDYWGQGTQVTVSS | low polyreactivity |
| QVQLVESGGGLVQAGGSLRLSCAASGSIFPIYAMGRYRQAPGKEMELVAAINRSGGSTYYADSVKGRFTISRDNAKNSVYLQMNSLIPEDTAVYYCNADYGYHNQLFWGYYGWSSDHWGQGTQVTVSS | low polyreactivity |
| QVQLVESGGGLVQAGGSLRLSCAASGSIFAVYAMGWYRQAPGKERVLVAASSTDYADSVKGRFTISRDNAKNTVYLQMNSLKTEDTAVYYCAKVGFGIPGGFYYWGQGTQVTVSS | low polyreactivity |
| QVQLEESGGGLVQAGGSLRLSCAASGSTFSRYAMGWYRPAPGKEREFVAAISRRAGGTYYADSVKGRFTISRDNAKNTVYLQMNSLKPEDTAVYYCATVLPRDYIGRATYDYWGQGTQVTVSS | high polyreactivity |
| QVQIVESGGGLVQAGGSLRLSCSASGNIFYKYAMGWFRQAPGKERELVAAITWRVVRTYYADSVKGRFTISRDNAKNTVYLQMNSLKPEDTAVYYCAALSRQSGDYWGQGTQLTVSS | high polyreactivity |
| QVQLVESGGGLVQAGGSLRLSCAASGNTLRVYALGWYRQAPGKERELVAAISYSSVNTYYADSVKGRFTISRDNAKNTVYLQMNSLKPEDTAVYYCAADYYYYRRTQYDLRGYPYYYWGQGTQVTVSS | low polyreactivity |
| QVQLVESGRGLVQAGGSLRLSCAPSGIIFTSYAMGWYRQAPGKESEFVAAITRSGSRTYYADSVKGRFTISRDNAKNTVYLQMNRLKPEDTAVYYCAARTFHDSSDSYAGGYWGQGTQVTVSS | low polyreactivity |

— the nanobody polyreactivity screen of Harvey et al. (2022)
